Substrate in the data set: N[C@@H](CCC(=O)O)C(=O)O
The data set is described as follows: purified protein. The settings on record: 0.1-1.0 mM NADP, 50 mM Tris, pH 7.5, 293 K, 20.0 °C.

This is an account of results in PMC11096400 (Scientific Reports, 2024).

B1: glutamate dehydrogenase (GDH) (Thermococcus profundus) (protein)
chain: MVEIDPFEMAVKQLERAAQYMDISEEALEWLKKPMRIVEVSVPIEMDDGSVKVFTGFRVQHNWARGPTKGGIRWHPAETLSTVKALATWMTWKVAVVDLPYGGGKGGIIVNPKELSEREQERLARAYIRAVYDVIGPWTDIPAPDVYTNPKIMGWMMDEYETIMRRKGPAFGVITGKPLSIGGSLGRGTATAQGAIFTIREAAKALGIDLKGKKIAVQGYGNAGYYTAKLAKEQLGMTVVAVSDSRGGIYNPDGLDPDEVLKWKREHGSVKDFPGATNITNEELLELEVDVLAPAAIEEVITEKNADNIKAKIVAEVANGPVTPEADDILREKGILQIPDFLCNAGGVTVSYFEWVQNINGYYWTEEEVREKLDKKMTKAFWEVYNTHKDKNIHMRDAAYVVAVSRVYQAMKDRGWVKK
By Km is commonly meant the substrate concentration at which the rate is half of its maximum. The kcat is the number of substrate molecules converted per active site and unit of time at saturation. B1: the Km was determined as 2380 ± 24 µM and the kcat was 2.78 ± 0.00 s⁻¹.
